In US8710017B2, “Human and mouse targeting peptides identified by phage display” (priority 2000, dated 2014):
Ends that are not written are not given here.

What was measured:
[1] = target: T1, β3 integrin cytoplasmic domain (Homo sapiens, UniProt P05106); assay: Phage binding to immobilized GST-β3cyto
T1 construct: recombinant fusion proteins containing β3 or β5 cytoplasmic domains
T1 sequence (P05106 742-788 limits assumed): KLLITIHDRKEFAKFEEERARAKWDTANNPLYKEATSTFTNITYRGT
Experimental: FIG. 9. Binding of β3 cytoplasmic domain-selected phage to immobilized proteins. GST fusion proteins or GST alone were coated on microtiter wells at 10 μg/ml and used to bind phage expressing endostatin targeting peptides. […] The data represent the mean colony counts from triplicate wells, with standard error of less than 10% of the mean.
β3 and β5 cytoplasmic domain-binding peptides were isolated by screening multiple phage libraries with recombinant GST fusion proteins that contained either GST-β3cyto or GST-β5cyto coated onto microtiter wells. Immobilized GST was used as a negative control for enrichment during the panning of each cytoplasmic domain. Phage were sequenced from randomly selected clones after three rounds of panning as disclosed elsewhere (Koivunen et al., 1995; Pasqualini et al., 1995). Distinct sequences were isolated that interacted specifically with the β3 or with the β5 cytoplasmic domains (Table 9). Randomly selected clones from panning rounds II and III were sequenced. […] The ratios were calculated by dividing the number of colonies recovered from β3-GST-coated wells and those recovered from GST or BSA.
The specificity of the interaction with β3 or β5 cytoplasmic domains was determined by calculating the ratios between the number of phage bound to the cytoplasmic domain containing-fusion proteins (β3 or β5) versus GST alone (negative control). […]

GST-β5 integrin = target: T2, GST-β5 integrin (Homo sapiens, UniProt P18084); assay: Annexin V binding to GST-β5 cytoplasmic domain (ELISA), competition with VISY peptide
T2 construct: Plates were coated with GST fusion proteins of the cytoplasmic domains of various integrins and Annexin V was added to the plates
T2 sequence (P18084 743-799 limits assumed): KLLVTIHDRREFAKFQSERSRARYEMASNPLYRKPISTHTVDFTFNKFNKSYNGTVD
Experimental: (§1) Competitive binding assays were performed to examine the binding of Annexin V to β5 integrin and the effect of the VISY peptide. Plates were coated with GST fusion proteins of the cytoplasmic domains of various integrins and Annexin V was added to the plates. Binding of Annexin V was determined using anti-Annexin V antibodies. […] Calcium was used because Annexin V activity has been reported to be modulated by calcium. Binding of Annexin V to GST-β5 was blocked by addition of the VISY peptide (FIG. 20A).
A reciprocal study was performed, using Annexin V to coat plates and adding GST fusion proteins of integrin cytoplasmic domains. Binding was assessed using anti-GST fusion protein antibodies. […] In some studies, calcium ion appeared to interfere with the binding interaction between GST-β5 and Annexin V, with decreased binding observed in the presence of calcium (not shown).

GST-β3 integrin = target: T3, GST-β3 integrin (Homo sapiens, UniProt P05106); assay: Annexin V binding to GST-β3 cytoplasmic domain (ELISA); conditions: FIG. 20A
T3 construct: recombinant fusion proteins containing β3 or β5 cytoplasmic domains
T3 sequence (P05106 742-788 limits assumed): T1 sequence (P05106 742-788 limits assumed)
Experimental: as §1

GST-β1 integrin = GST-β1 integrin (Homo sapiens, UniProt P05556); assay: Annexin V binding to GST-β1 cytoplasmic domain (ELISA); conditions: FIG. 20A
Experimental: as §1

endothelial cells = assay: Endothelial cell migration (chemotaxis) assay with penetratin peptide chimeras; format: cell-based, human; conditions: VEGF-A 20 ng/ml, 5 h, FIG. 16
Experimental: FIG. 16. Effect of penetratin peptide chimeras on endothelial cell migration. Cell migration assay were performed in a 48-well microchemotaxis chamber. Five random high-power fields (magnitude 40×) were counted in each well.
Cell migration assays were performed as follows: 48-well microchemotaxis chambers were used. Polyvinylpyrrolidone-free polycarbonate filters (Nucleopore, Cambridge, Mass.) with 8-μm pores were coated with 1% gelatin for 10 min at room temperature and equilibrated in M199 medium supplemented with 2% FCS. Peptides were placed in the lower compartment of a Boyden chamber in M199 supplemented with 2% FCS, 20 ng/ml VEGF-A (R&D System), and 1 U/ml heparin. Overnight-starved subconfluent cultures were quickly trypsinized, and resuspended in M199 containing 2% FCS at a final concentration of 2×10^6 cells/ml. After the filter was placed between lower and upper chambers, 50 μl of the cell suspension was seeded in the upper compartment. Cells were allowed to migrate for 5 h at 37° C. in a humidified atmosphere with 5% CO2. The filter was then removed, and cells on the upper side were scraped with a rubber policeman. […] Five random high-power fields (magnitude 40×) were counted in each well.
Cell migration was assayed in a 48-well microchemotaxis chamber. […] Five random high-power fields (magnitude 40×) were counted in each well.

[2] = target: T4, β5 integrin cytoplasmic domain (Homo sapiens, UniProt P18084); assay: Binding of Fyn-phosphorylated phage to β5 cytoplasmic domain
T4 construct: the screenings involving the β5 cytoplasmic domain fusion protein
T4 sequence (P18084 743-799 limits assumed): T2 sequence (P18084 743-799 limits assumed)
Experimental: Phosphorylation of peptide libraries with src family protein kinases (Fyn, c-Src, Lyn, and Syc) and serine/threonine kinases such as a MAP kinase were performed as described previously (Schmitz et al., 1996; Dente et al., 1997; Gram et al., 1997). Briefly, phage particles were collected from culture supernatants by double precipitation with 20% polyethylene glycol 8000 in 2.5 M NaCl. Particles were dissolved at 10^12 particles/ml. Purified phage (10 μl) were incubated for 3 hours at room temperature with different concentrations (35 to 3,500 units) of protein kinases in a reaction buffer volume of 50 μl. The reaction mixtures were transferred to tubes containing 10 μg of agarose-conjugated anti-P-Tyr, anti-P-Ser, or anti-P-Thr monoclonal antibodies to select phage displaying phosphorylated peptides. […] Phosphorylated peptides binding to β3 and β5 cytoplasmic domains were analyzed as described in the previous section.
Randomly selected clones from rounds III and IV were sequenced from a X4YX4 phosphorylated library with Fyn. […] The ratio of binding to β3 or β5 was calculated by dividing the number of β3 or β5 colonies by GST or BSA colonies found after panning. The ratio of binding to β3 or β5 with phosphorylated phage by Fyn versus unphosphorylated phage was calculated by dividing the number of colonies found after the panning. […]

HUVEC cells = assay: Apoptosis assay (propidium iodide staining, subdiploid population); format: cell-based, human; conditions: 15 μM, 4 hours, FIG. 17
Experimental: FIG. 17. Penetratin peptide chimera binding to the β5 cytoplasmic domain induces programmed cell death. 10^6 HUVEC cells were harvested in complete media and 15 μM penetratin peptide chimeras were added to the cells.
Approximately 1×10^6 cells were harvested in complete media and 15 μM of peptide added for 4, 8, or 12 h. The cells were then washed in PBS and resuspended in 0.5 ml propidium iodide solution (50 μg/ml PI, 0.1% Triton X-100, 0.1% sodium citrate). After a 24-h incubation at 4° C., cells were counted with a XL Coulter (Coulter Corporation) with a 488-nm laser; 12,000 cells were counted for each histogram, and cell cycle distributions were analyzed with Multicycle program.
Approximately 1×10^6 cells were harvested in complete medium, and 15 μM of peptide was added for 4, 8, or 12 hours. The cells were then washed in PBS and resuspended in 0.5 ml propidium iodide solution (50 μg/ml PI, 0.1% Triton X-100, 0.1% sodium citrate). After a 24-h incubation at 4° C., the cells were counted with an XL Coulter (Coulter Corporation) with a 488 nm laser; 12,000 cells were counted for each histogram, and cell cycle distributions were analyzed with the Multicycle program.

HUVEC = assay: Apoptosis by chromatin fragmentation (agarose gel) in HUVEC; format: cell-based, human; conditions: 15 μM, 2-4 hours, FIG. 21
Experimental: 10^6 HUVEC were treated with 15 μM of VISY antennapedia (penetratin) chimera or 15 μM of antennapedia peptide (pentratin) alone for 2-4 hours and chromatin fragmentation was analyzed by electrophoresis in an agarose gel.

mouse spleen = assay: In vivo spleen targeting of Fab phage clones by BRASIL; conditions: 5 minutes circulation, FIG. 5
mouse spleen cells = assay: In vitro binding of Fab phage clones to spleen cells by BRASIL; format: cell-based
Experimental: A singe cell suspension was prepared from two mouse spleens. The suspension was divided into five tubes and incubated on ice with 3×10^9 TU of Fab clones #2, #6, #10, #12 and 2×10^9 TU tet-phage. Phage bound to mouse spleen cells were recovered by BRASIL. 200 μl of log phase ER2537 E. coli was infected with the pellet and serial dilutions were plated on LB/carbenicillin and LB/tetracyclin plates for assessment of phage binding. Fd-tet was used as an internal control to normalize all the phage homing experiments.

GST-β1 integrin, sequence (P05556 752-798 limits assumed): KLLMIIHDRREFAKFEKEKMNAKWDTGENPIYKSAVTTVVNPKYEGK

AGWLYMSWK was tested, and the “β3/BSA Ratio” value ([1]; colonies from β3-GST-coated wells divided by those from BSA) was 2.4 and the “β3/GST Ratio” value ([1]; colonies from β3-GST-coated wells divided by those from GST) was 1.8.

In the case of “Annexin V: 36 kDa endogenous protein analog of the VISY peptide, ligand of β5 integrin cytoplasmic domain”, the “binding of Annexin V to GST-β5 integrin” value (GST-β5 integrin; FIG. 20A) is reported as “bound strongly”, the “binding of Annexin V to GST-β5 integrin” value (GST-β5 integrin; Tris-buffered saline (TBS)) is reported as “Low binding” and the “binding of Annexin V to GST-β5 integrin” value (GST-β5 integrin; cytoplasmic buffer with or without added calcium (2 mM)) is reported as “high binding”. For the same molecule, the “binding of Annexin V to GST-β3 integrin” value (GST-β3 integrin) was “did not bind” and the “binding of Annexin V to GST-β1 integrin” value (GST-β1 integrin) was “did not bind”.

“GLDTYRGSP [TYR-11 tested as penetratin chimera]” was tested, and the “effect on endothelial cell migration” value (endothelial cells) was “increase cell migration”.

With “SDNRYIGSW [Y-18 tested as penetratin chimera]” the “effect on endothelial cell migration” value (endothelial cells) was “increase cell migration”.

With TLRKYFHSS the “β3 or β5/GST” value ([2]; X4YX4 library phosphorylated with Fyn) was 5.6.

TMLRYFMFP gave a Phos/Unphos ([2]; phage phosphorylated by Fyn versus unphosphorylated phage) of 4.2.

In the case of “VISY-penetratin chimera: chimeric peptide containing VISY peptide (VVISYSMPD) linked to penetratin (antennapedia), plus a biotin moiety (VVISYSMPDRQIKIWFQNRRMKWKK; also: plus a biotin moiety, site not given here)”, the “induction of apoptosis (PI staining)” value (HUVEC cells) is reported as “induction of apoptosis” and the “induction of apoptosis (chromatin fragmentation)” value (HUVEC) is reported as “induction of apoptosis”.

B1: Fab clone #6: chicken Fab phage clone from α-spleen library, localized in mouse spleen (protein)
scFv: CQPAMAAVTLDESGGGLQTPGGTLSLVCKASGISIGYGMNWVRQAPGKGLEYVASISGDGNFAHYGAPVKGRATISRDDGQNTVTLQLNNLR
modifications: Fab format
In the case of B1, the “binding to spleen compared to Fd-tet phage” value (mouse spleen) is reported as “many-fold increased binding to spleen”, the “binding to mouse spleen cells compared to Fd-tet insertless control phage” value (mouse spleen cells; FIG. 3) is reported as “lowest degree of differential binding” and the “binding to mouse spleen cells, direct comparison with NPC-3TT” value (mouse spleen cells; FIG. 4) is reported as “only slightly higher than the binding of phage NPC-3TT”.
